Target: T1, PSD-95 PDZ1-PDZ2 (Mus musculus, UniProt Q62108)
T1 construct: HaloTag-PDZ1+PDZ2 fusion protein (residues 61 to 249 of Mus musculus PSD-95); HaloTag (N); made in house
Test: Binding of cypin to PSD-95 PDZ1-PDZ2 affinity resin
Excerpt: An affinity column was used substituted with a HaloTag-PDZ1+PDZ2 fusion protein (residues 61 to 249 of Mus musculus PSD-95) to purify heterologously expressed human cypin. Cypin was expressed in E. coli either as the free protein or fused to an N-terminal MBP, and purified from the bacterial supernate on the PDZ1-PDZ2 Domain-Affinity Resin. Both cypin and MBP-cypin were purified to >99% homogeneity.
For the experiment, full length cypin (guanine deaminase, Homo sapiens: AA 1-454) or MBP-cypin fusion proteins were expressed in BL21(DE3) E. coli cells. Single colonies of BL21(DE3) cells harboring pJExpress414 plasmids containing cypin or MBP-cypin genes were grown overnight at 37° C. in 5 ml of lysogeny broth (LB) (Cat. No. L9110, Teknova, Hollister, Calif.) supplemented with 100 ug/ml carbenicillin. […] Bacterial cell pellets (0.4-2.5 grams) containing cypin or MBP-cypin were resuspended in 5 ml/g cell paste of BugBuster Lysis Buffer [1× BugBuster (Cat. No. 70921, EMD Millipore, Billerica Mass.), 50 mM HEPES, 150 mM NaCl, 5 mM TCEP, 0.5 mM EDTA, 10 mM MgCl2, 2 mM PMSF, Complete Protease Inhibitor supplemented with 25 U/ml Benzonase and 10 U/ml ReadyLyse]. […] Eluted protein was analyzed on 4-12% bis-tris SDS-PAGE gels and proteins were detected by Gel Code Blue staining.

T1 sequence (Q62108 61-249): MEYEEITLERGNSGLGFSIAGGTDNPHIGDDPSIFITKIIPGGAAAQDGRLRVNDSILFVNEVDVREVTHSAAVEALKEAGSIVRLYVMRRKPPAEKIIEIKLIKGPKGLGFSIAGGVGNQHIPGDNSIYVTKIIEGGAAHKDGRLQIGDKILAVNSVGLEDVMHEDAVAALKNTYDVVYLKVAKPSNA

Molecule | binding to solid support PDZ1 and PDZ2 domains
untagged cypin: full length cypin (guanine deaminase, Homo sapiens: AA 1-454) (protein) MCAAQMPPLAHIFRGTFVHSTWTCPMEVLRDHLLGVSDSGKIVFLEEASQQEKLAKEWCFKPCEIRELSHHEFFMPGLVDTHIHASQYSFAGSSIDLPLLEWLTKYTFPAEHRFQNIDFAEEVYTRVVRRTLKNGTTTACYFATIHTDSSLLLADITDKFGQRAFVGKVCMDLNDTFPEYKETTEESIKETERFVSEMLQKNYSRVKPIVTPRFSLSCSETLMGELGNIAKTRDLHIQSHISENRDEVEAVKNLYPSYKNYTSVYDKNNLLTNKTVMAHGCYLSAEELNVFHERGASIAHCPNSNLSLSSGFLNVLEVLKHEVKIGLGTDVAGGYSYSMLDAIRRAVMVSNILLINKVNEKSLTLKEVFRLATLGGSQALGLDGEIGNFEVGKEFDAILINPKASDSPIDLFYGDFFGDISEAVIQKFLYLGDDRNIEEVYVGGKQVVPFSSSV | able to bind with strong affinity
MBP-cypin: cypin fused to an N-terminal maltose binding protein (protein, left off: large carriers) MCAAQMPPLAHIFRGTFVHSTWTCPMEVLRDHLLGVSDSGKIVFLEEASQQEKLAKEWCFKPCEIRELSHHEFFMPGLVDTHIHASQYSFAGSSIDLPLLEWLTKYTFPAEHRFQNIDFAEEVYTRVVRRTLKNGTTTACYFATIHTDSSLLLADITDKFGQRAFVGKVCMDLNDTFPEYKETTEESIKETERFVSEMLQKNYSRVKPIVTPRFSLSCSETLMGELGNIAKTRDLHIQSHISENRDEVEAVKNLYPSYKNYTSVYDKNNLLTNKTVMAHGCYLSAEELNVFHERGASIAHCPNSNLSLSSGFLNVLEVLKHEVKIGLGTDVAGGYSYSMLDAIRRAVMVSNILLINKVNEKSLTLKEVFRLATLGGSQALGLDGEIGNFEVGKEFDAILINPKASDSPIDLFYGDFFGDISEAVIQKFLYLGDDRNIEEVYVGGKQVVPFSSSV | able to bind with strong affinity

From US20140329706A1, “AFFINITY TAGS, AND RELATED AFFINITY LIGANDS, ENGINEERED PROTEINS, MODIFIED SUPPORTS, COMPOSITIONS, METHODS AND SYSTEMS” (CALIFORNIA INSTITUTE OF TECHNOLOGY, priority 2013, published 2014)
